In PMC6265447, “The bacterial Mre11–Rad50 homolog SbcCD cleaves opposing strands of DNA by two chemically distinct nuclease reactions”:

B1: 25 bp DNA (dsDNA)
DNA 1: CGCTTTATCAGAAGCCAGACATTAA
DNA 2: TTAATGTCTGGCTTCTGATAAAGCG
B2: 30 bp DNA (dsDNA)
DNA 1: CGCTTTATCAGAAGCCAGACATTAACGCTT
DNA 2: AAGCGTTAATGTCTGGCTTCTGATAAAGCG

Molecular target: SbcC;SbcD H84Q (Escherichia coli;Escherichia coli, UniProt P13458;P0AG76 1-1048;1-400, |H84Q)
Experiment: fluorescence anisotropy; 1 mM ATP, 5 mM Mg2+, 1 mM Mn2+; 25 mM Tris pH 7.5, 50 mM KCl, 5 mM MgCl2, 1 mM MnCl2, 1 mM DTT, 1 mM ATP where stated; 5 nM DNA, 2-1000 nM SbcCD, 20 min at 25 C
Conditions: protein: recombinant;recombinant; tags: ;C-terminal His6; chain copies: 2;2; label: 5' 6-FAM; blunt

Binder	Kd
B1	146 ± 46 nM
B2	43 ± 7 nM
